Assay results from US20180118846A1 (published 2018).

Tests used:
human Trop-2 [1] = target: T1, human Trop-2 (human, UniProt P09758 27-323); test: cell-based or functional assay
T1 sequence (looked up): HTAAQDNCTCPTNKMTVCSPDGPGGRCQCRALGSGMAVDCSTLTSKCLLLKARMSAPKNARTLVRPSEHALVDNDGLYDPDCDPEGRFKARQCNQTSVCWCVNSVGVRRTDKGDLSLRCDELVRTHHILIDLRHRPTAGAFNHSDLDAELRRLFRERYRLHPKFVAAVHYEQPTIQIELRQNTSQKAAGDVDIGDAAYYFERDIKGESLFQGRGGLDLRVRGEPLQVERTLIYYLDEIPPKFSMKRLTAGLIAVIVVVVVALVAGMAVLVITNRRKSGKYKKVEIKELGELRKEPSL

mouse CD3 = mouse CD3 (mouse, UniProt P22646 22-108); test: not described (data not shown)
mouse Trop-2 = target: T2, mouse Trop-2 (mouse, UniProt Q8BGV3 25-270, limits assumed); test: not described (data not shown)
T2 sequence (looked up): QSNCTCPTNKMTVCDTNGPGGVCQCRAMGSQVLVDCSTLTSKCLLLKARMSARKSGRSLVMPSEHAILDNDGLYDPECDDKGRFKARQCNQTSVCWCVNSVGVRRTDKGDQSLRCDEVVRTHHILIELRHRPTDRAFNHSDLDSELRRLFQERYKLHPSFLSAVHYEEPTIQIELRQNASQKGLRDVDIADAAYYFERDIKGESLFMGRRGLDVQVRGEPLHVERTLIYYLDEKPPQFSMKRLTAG

human Trop-2 [2] = target: T1, human Trop-2; test: cell-based or functional assay; remark: listed apart in the source

mouse CD3, sequence (P22646 22-108): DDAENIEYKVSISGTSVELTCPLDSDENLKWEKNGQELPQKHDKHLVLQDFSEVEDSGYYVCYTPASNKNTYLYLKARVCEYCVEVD

T-cell lysis of NCI-N87, very active donor, IC50 (human Trop-2 [1]): 0.37 pM
T-cell lysis of NCI-N87, very active donor, with 0.1 nM 20*-2b, IC50 (human Trop-2 [1]): 0.05 pM
T-cell lysis of NCI-N87, very active donor, with 0.1 nM peginterferonalfa-2a, IC50 (human Trop-2 [1]): 0.14 pM
T-cell lysis of NCI-N87, very weak donor T cells, EC50 (human Trop-2 [1]): 39 pM
T-cell lysis of NCI-N87, very weak donor T cells, with peginterferonalfa-2a, EC50 (human Trop-2 [1]): 1.4 pM
T-cell mediated lysis of Capan-1, IC50 (human Trop-2 [1]): 29 pM
T-cell mediated lysis of NCI-N87, IC50 (human Trop-2 [1]): 0.85 pM
binding result (mouse CD3): no binding
binding result (mouse Trop-2): no binding
B1: (E1)-3s, anti-Trop-2 x anti-CD3 trivalent bispecific DNL complex (two CH1-DDD2-Fab-hRS7 + one scFv-AD2-Okt3) (bispecific antibody)
heavy (part 1 of 2): QVQLQQSGSELKKPGASVKVSCKASGYTFTNYGMNWVKQAPGQGLKWMGWINTYTGEPTYTDDFKGRFAFSLDTSVSTAYLQISSLKADDTAVYFCARGGFGSSYWYFDVWGQGSLVTVSS
heavy (part 2 of 2): not shown
light: DIQLTQSPSSLSASVGDRVSITCKASQDVSIAVAWYQQKPGKAPKLLIYSASYRYTGVPDRFSGSGSGTDFTLTISSLQPEDFAVYYCQQHYITPLTFGAGTKVEIK
scFv: not shown
notes: also called (E1)-35; TROP2-targeting bsAb; not shown: human CH1, first 4 hinge residues and Gly/Ser linker; human kappa constant domain
T-cell killing of BxPC3, IC50 (human Trop-2 [1]): 0.4 pM
ex vivo T cell redirected killing of BxPC3, donor 1, IC50 (human Trop-2 [2]): 1.06 pM
ex vivo T cell redirected killing of BxPC3, donor 2, IC50 (human Trop-2 [2]): 0.56 pM
ex vivo T cell redirected killing of BxPC3, donor 3, IC50 (human Trop-2 [2]): 0.32 pM
ex vivo T cell redirected killing of Capan-1, donor 1, IC50 (human Trop-2 [2]): 35.6 pM
ex vivo T cell redirected killing of Capan-1, donor 2, IC50 (human Trop-2 [2]): 248 pM
ex vivo T cell redirected killing of Capan-1, donor 4, IC50 (human Trop-2 [2]): 8.51 pM
ex vivo T cell redirected killing of NCI-N87, donor 1, IC50 (human Trop-2 [2]): 6.76 pM
ex vivo T cell redirected killing of NCI-N87, donor 2, IC50 (human Trop-2 [2]): 34 pM
